Reference: publication PMC13078783

Molecular target: GFP-MAP7 (UniProt O88735)
Assay: co-IP; HeLa cells transfected with GFP/GFP-MAP7, HA-KLC2 and HA-KIF5C (WT, ElbowLock, DeltaElbow); GFP-TRAP beads; western blot with anti-GFP and anti-HA

Chain of GFP-MAP7 (O88735 whole entry): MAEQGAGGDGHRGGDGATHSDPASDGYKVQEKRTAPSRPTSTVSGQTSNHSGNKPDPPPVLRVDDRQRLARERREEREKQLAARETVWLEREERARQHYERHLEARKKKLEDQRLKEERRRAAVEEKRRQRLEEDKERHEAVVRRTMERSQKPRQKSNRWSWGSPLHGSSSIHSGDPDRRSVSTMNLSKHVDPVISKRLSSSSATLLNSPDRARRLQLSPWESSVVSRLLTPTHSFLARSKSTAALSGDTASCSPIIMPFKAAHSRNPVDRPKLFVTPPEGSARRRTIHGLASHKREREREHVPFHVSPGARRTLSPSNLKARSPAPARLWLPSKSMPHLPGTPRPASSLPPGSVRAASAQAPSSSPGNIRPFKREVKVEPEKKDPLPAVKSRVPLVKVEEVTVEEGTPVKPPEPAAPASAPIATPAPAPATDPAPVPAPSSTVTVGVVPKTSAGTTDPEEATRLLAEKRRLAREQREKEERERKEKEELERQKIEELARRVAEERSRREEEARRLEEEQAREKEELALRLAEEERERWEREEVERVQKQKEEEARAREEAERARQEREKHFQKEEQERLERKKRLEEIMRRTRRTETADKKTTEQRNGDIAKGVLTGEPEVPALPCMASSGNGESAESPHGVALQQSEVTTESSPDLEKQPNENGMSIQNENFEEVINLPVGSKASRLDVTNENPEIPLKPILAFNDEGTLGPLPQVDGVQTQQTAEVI

- fold increase of kinesin-1 co-precipitated with GFP-MAP7 against wild-type or ElbowLock: 5 fold
Substance: DeltaElbow kinesin-1 complex (HA-KIF5C DeltaElbow / HA-KLC2) (from UniProt P56536 1-955; O88448 1-599)
